Experiments:
Experiment in all cases: holdup assay
Design in all cases: key: below the threshold = too weak to quantify, mostly under pKd 3.1 to 4
Conditions in all cases: plain residues with an end cap or a label only (N-terminal biotin on a linker: ado-ado)
DLG4_2, P78352 = molecular target: DLG4_2, P78352
GRIP2_3, Q9C0E4 = molecular target: GRIP2_3, Q9C0E4
TJP1_3, Q07157 = molecular target: TJP1_3, Q07157
IL16_3, Q14005 = molecular target: IL16_3, Q14005
MAGI2_6, Q86UL8 = molecular target: MAGI2_6, Q86UL8
Chain of MAGI2_6, Q86UL8 (Q86UL8 1141-1229): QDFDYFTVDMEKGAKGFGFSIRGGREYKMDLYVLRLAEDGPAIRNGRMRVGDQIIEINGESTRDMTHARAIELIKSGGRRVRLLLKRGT

DLG3_3, Q92796 = molecular target: T1, DLG3_3, Q92796
T1 sequence (Q92796 374-475, limits assumed, looked up): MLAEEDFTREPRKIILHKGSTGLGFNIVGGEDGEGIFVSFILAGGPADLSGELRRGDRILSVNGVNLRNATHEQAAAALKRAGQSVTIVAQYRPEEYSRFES

FRMPD3, Q5JV73 = molecular target: FRMPD3, Q5JV73
Chain of FRMPD3, Q5JV73 (Q5JV73 12-100): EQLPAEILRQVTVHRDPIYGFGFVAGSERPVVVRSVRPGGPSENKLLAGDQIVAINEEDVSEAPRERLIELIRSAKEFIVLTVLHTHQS

CASK, O14936 = molecular target: CASK, O14936
Chain of CASK, O14936 (O14936 487-570): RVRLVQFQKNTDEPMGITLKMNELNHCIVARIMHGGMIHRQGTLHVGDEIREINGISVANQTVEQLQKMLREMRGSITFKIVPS

DFNB31_3, Q9P202 = molecular target: T2, DFNB31_3, Q9P202
T2 sequence (Q9P202 811-907, limits assumed, looked up): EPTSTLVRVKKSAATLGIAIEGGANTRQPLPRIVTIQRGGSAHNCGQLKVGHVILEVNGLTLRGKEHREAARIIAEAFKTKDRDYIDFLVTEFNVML

MPP6, Q9NZW5 = molecular target: T3, MPP6, Q9NZW5
T3 sequence (Q9NZW5 125-219, limits assumed, looked up): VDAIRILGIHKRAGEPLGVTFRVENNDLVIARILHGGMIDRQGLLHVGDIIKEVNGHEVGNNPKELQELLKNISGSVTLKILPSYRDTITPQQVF

SCRIB_3, Q14160 = molecular target: SCRIB_3, Q14160
Chain of SCRIB_3, Q14160 (Q14160 999-1103): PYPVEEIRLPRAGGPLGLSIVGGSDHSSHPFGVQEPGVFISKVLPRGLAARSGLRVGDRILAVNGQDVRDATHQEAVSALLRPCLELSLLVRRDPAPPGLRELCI

GRIP2_5, Q9C0E4 = molecular target: GRIP2_5, Q9C0E4
Chain of GRIP2_5, Q9C0E4 (Q9C0E4 544-642): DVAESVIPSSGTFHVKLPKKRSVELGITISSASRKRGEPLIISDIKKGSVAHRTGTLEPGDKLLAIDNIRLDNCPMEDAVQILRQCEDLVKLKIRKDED

PTPN3, P26045 = molecular target: PTPN3, P26045
Chain of PTPN3, P26045 (P26045 505-587): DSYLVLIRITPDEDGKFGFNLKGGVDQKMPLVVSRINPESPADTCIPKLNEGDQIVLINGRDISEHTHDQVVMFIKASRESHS

Inadl_8, Q8NI35 = molecular target: Inadl_8, Q8NI35
Chain of Inadl_8, Q8NI35 (Q8NI35 1425-1530): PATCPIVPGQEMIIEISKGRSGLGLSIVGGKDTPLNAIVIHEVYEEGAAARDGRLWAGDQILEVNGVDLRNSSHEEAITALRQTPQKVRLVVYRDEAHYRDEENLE

LDB3, O75112 = molecular target: LDB3, O75112
Chain of LDB3, O75112 (O75112 1-94): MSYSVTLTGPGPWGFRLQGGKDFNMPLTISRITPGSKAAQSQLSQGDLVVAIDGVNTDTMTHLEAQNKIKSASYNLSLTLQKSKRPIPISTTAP

DFNB31_1, Q9P202 = molecular target: T4, DFNB31_1, Q9P202
T4 sequence (Q9P202 135-233, limits assumed, looked up): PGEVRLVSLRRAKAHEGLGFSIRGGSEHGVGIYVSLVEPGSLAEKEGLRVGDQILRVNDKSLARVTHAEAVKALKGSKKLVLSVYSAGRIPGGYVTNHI

MPDZ_12, O75970 = molecular target: T5, MPDZ_12, O75970
T5 sequence (O75970 1857-1958, limits assumed, looked up): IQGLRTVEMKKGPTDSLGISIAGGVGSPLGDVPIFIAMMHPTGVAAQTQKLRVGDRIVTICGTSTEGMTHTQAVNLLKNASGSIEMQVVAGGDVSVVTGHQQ

MAGI2_4, Q86UL8 = molecular target: MAGI2_4, Q86UL8
Chain of MAGI2_4, Q86UL8 (Q86UL8 772-865): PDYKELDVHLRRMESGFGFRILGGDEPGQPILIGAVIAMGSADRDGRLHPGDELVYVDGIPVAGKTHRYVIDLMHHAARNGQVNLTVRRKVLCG

Inadl_1, Q8NI35 = molecular target: Inadl_1, Q8NI35
Chain of Inadl_1, Q8NI35 (Q8NI35 113-229): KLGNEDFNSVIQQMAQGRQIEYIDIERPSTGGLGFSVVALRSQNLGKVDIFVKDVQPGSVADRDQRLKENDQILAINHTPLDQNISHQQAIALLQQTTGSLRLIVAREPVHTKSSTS

MAGI3_2, Q5TCQ9 = molecular target: MAGI3_2, Q5TCQ9
Chain of MAGI3_2, Q5TCQ9 (Q5TCQ9 398-503): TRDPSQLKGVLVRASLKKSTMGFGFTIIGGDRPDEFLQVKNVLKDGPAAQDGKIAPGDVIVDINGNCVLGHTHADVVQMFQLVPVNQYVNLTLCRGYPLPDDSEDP

DLG4_1, P78352 = molecular target: DLG4_1, P78352
Chain of DLG4_1, P78352 (P78352 62-152): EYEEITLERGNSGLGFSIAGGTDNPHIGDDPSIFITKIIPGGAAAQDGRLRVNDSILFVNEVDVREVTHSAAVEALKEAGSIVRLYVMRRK

LNX2_2, Q8N448 = molecular target: T6, LNX2_2, Q8N448
T6 sequence (Q8N448 334-432, limits assumed, looked up): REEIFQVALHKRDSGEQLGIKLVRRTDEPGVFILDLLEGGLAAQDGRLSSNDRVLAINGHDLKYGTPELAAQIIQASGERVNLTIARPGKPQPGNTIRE

APBA3_1, O96018 = molecular target: T7, APBA3_1, O96018
T7 sequence (O96018 389-490, limits assumed, looked up): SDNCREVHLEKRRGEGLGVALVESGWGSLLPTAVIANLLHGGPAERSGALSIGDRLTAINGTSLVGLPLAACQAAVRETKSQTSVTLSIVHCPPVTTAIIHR

SHANK1, Q9Y566 = molecular target: T8, SHANK1, Q9Y566
T8 sequence (Q9Y566 658-767, limits assumed, looked up): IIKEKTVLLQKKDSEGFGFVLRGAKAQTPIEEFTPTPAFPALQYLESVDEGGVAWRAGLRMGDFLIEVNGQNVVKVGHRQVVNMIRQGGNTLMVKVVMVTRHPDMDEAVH

GRIP2_4, Q9C0E4 = molecular target: GRIP2_4, Q9C0E4
Chain of GRIP2_4, Q9C0E4 (Q9C0E4 446-548): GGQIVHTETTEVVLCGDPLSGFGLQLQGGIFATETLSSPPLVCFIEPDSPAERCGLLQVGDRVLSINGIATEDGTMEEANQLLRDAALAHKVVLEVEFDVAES

PDZD7_3, Q9H5P4 = molecular target: T9, PDZD7_3, Q9H5P4
T9 sequence (Q9H5P4 857-944, limits assumed, looked up): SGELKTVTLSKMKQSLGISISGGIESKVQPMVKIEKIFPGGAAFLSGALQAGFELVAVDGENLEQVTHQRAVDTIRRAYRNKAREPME

MPP2, Q14168 = molecular target: T10, MPP2, Q14168
T10 sequence (Q14168 180-250, limits assumed, looked up): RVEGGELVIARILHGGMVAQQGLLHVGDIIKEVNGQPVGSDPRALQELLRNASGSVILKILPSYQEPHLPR

GRIP2_6, Q9C0E4 = molecular target: GRIP2_6, Q9C0E4
Chain of GRIP2_6, Q9C0E4 (Q9C0E4 648-740): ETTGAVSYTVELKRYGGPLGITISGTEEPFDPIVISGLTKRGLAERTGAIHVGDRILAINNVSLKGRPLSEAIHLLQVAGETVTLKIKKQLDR

LIMK2, P53671 = molecular target: LIMK2, P53671
Chain of LIMK2, P53671 (P53671 143-248): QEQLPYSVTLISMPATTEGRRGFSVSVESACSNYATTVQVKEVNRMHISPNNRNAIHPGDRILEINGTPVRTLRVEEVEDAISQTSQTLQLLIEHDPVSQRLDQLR

Chain of TJP1_3, Q07157 (Q07157 416-512): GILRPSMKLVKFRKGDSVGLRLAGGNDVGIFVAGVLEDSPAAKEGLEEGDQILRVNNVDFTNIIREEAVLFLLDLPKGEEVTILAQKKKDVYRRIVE
Chain of DLG4_2, P78352 (P78352 155-259): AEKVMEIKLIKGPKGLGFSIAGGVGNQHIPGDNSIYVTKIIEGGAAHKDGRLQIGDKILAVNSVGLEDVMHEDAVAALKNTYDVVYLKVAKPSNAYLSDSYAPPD
Chain of IL16_3, Q14005 (Q14005 1107-1207): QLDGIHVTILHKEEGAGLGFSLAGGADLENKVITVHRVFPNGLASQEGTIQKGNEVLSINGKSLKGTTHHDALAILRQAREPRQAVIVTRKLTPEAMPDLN
Chain of GRIP2_3, Q9C0E4 (Q9C0E4 238-339): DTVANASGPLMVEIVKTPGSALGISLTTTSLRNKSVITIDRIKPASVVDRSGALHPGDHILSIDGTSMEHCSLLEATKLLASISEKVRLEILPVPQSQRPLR

FHSIKQSTAV [CRHR1, P34998] was tested, and the pKd (DLG4_2, P78352) was 4.93, the pKd (GRIP2_3, Q9C0E4) was “below the threshold” and the pKd (TJP1_3, Q07157) was “below the threshold”. The pKd (IL16_3, Q14005) was “below the threshold”, the pKd (MAGI2_6, Q86UL8) was 3.83 and the pKd (DLG3_3, Q92796) was 4.4. The pKd (FRMPD3, Q5JV73) was “below the threshold”, the pKd (CASK, O14936) was “below the threshold” and the pKd (DFNB31_3, Q9P202) was “below the threshold”. The pKd (MPP6, Q9NZW5) was 3.7, the pKd (SCRIB_3, Q14160) was 4.43 and the pKd (GRIP2_5, Q9C0E4) was “below the threshold”. For the same binder, the pKd (PTPN3, P26045) was 4.6, the pKd (Inadl_8, Q8NI35) was 3.87 and the pKd (LDB3, O75112) was “below the threshold”. The pKd (DFNB31_1, Q9P202) was 4.39, the pKd (MPDZ_12, O75970) was “below the threshold” and the pKd (MAGI2_4, Q86UL8) was 4.42. The pKd (Inadl_1, Q8NI35) was “below the threshold”, the pKd (MAGI3_2, Q5TCQ9) was 5.01 and the pKd (DLG4_1, P78352) was 4.56. For the same binder, the pKd (LNX2_2, Q8N448) was 4.16, the pKd (APBA3_1, O96018) was “below the threshold” and the pKd (SHANK1, Q9Y566) was 4.55. The pKd (GRIP2_4, Q9C0E4) was “below the threshold”, the pKd (PDZD7_3, Q9H5P4) was 4.36 and the pKd (MPP2, Q14168) was “below the threshold”. The pKd (GRIP2_6, Q9C0E4) was “below the threshold” and the pKd (LIMK2, P53671) was “below the threshold”.

Source: article PMC9482650, “Quantitative fragmentomics allow affinity mapping of interactomes” (Nature Communications, 2022)
